B1: Adagio protein 1 (Arabidopsis thaliana (Mouse-ear cress)), Q94BT6 (parent)
chain: MEWDSGSDLSADDASSLADDEEGGLFPGGGPIPYPVGNLLHTAPCGFVVTDAVEPDQPIIYVNTVFEMVTGYRAEEVLGGNCRFLQCRGPFAKRRHPLVDSMVVSEIRKCIDEGIEFQGELLNFRKDGSPLMNRLRLTPIYGDDDTITHIIGIQFFIETDIDLGPVLGSSTKEKSIDGIYSALAAGERNVSRGMCGLFQLSDEVVSMKILSRLTPRDVASVSSVCRRLYVLTKNEDLWRRVCQNAWGSETTRVLETVPGAKRLGWGRLARELTTLEAAAWRKLSVGGSVEPSRCNFSACAVGNRVVLFGGEGVNMQPMNDTFVLDLNSDYPEWQHVKVSSPPPGRWGHTLTCVNGSNLVVFGGCGQQGLLNDVFVLNLDAKPPTWREISGLAPPLPRSWHSSCTLDGTKLIVSGGCADSGVLLSDTFLLDLSIEKPVWREIPAAWTPPSRLGHTLSVYGGRKILMFGGLAKSGPLKFRSSDVFTMDLSEEEPCWRCVTGSGMPGAGNPGGVAPPPRLDHVAVNLPGGRILIFGGSVAGLHSASQLYLLDPTEDKPTWRILNIPGRPPRFAWGHGTCVVGGTRAIVLGGQTGEEWMLSELHELSLASYLT
partner: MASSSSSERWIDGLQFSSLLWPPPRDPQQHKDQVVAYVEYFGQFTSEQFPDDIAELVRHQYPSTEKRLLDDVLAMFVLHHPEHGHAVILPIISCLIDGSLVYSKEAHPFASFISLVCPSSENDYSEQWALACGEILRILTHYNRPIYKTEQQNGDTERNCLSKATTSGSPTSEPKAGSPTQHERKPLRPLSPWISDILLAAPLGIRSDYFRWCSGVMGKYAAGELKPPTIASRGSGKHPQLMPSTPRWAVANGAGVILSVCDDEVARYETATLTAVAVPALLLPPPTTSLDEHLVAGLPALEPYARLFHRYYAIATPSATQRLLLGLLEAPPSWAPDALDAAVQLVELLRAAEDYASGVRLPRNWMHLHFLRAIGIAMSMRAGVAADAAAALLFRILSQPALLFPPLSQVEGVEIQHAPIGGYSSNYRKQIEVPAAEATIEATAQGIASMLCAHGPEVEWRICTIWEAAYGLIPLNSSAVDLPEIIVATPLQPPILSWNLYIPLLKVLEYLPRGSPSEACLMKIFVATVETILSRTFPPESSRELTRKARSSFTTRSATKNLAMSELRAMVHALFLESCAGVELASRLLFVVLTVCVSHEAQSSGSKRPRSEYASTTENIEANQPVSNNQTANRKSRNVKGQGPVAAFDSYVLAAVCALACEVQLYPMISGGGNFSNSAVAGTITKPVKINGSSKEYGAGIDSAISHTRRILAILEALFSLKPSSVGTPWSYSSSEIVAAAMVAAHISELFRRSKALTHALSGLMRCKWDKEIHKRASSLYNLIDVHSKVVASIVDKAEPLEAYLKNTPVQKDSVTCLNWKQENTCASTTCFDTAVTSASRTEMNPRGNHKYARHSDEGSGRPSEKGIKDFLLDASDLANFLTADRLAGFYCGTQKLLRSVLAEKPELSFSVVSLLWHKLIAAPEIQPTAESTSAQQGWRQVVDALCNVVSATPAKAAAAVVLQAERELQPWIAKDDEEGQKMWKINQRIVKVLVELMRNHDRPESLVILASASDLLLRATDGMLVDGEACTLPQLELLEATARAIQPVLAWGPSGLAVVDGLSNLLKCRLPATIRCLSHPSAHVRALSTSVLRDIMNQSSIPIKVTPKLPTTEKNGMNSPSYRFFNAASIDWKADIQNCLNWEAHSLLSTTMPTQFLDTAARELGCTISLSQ

Variants of: B1
Settings: with gigan_arath GI

Row | effect of a mutation on the interaction | Variant
1 | disrupting interaction strength | G46E
2 | decreasing interaction strength | G119D
3 | decreasing interaction strength | C82A
